Common to all, as to assay: cell-based or functional assay
Assay [1] has as its target rat MHC class II RT1B (I-A) glycoproteins (rat).
The target of assay [2] is rat IL-2 receptor on cells (rat).
The target in assay [3] is rat IL-4 receptor on cells (rat).

This note sets out measurements from US20150125421A1.

Some results are limits rather than exact numbers.

OX6 anti-I-A (RT1B) IgG1 mAb (antibody): in assay [1], the [3H]thymidine incorporation of RsL.11 T cells with 100 nM cytokine/NAg in the presence of OX6 is less than 10000 cpm; the [3H]thymidine incorporation of RsL.11 T cells with 100 fM-10 nM cytokine/NAg in the presence of OX6 was less than 1000 cpm; the inhibition of the antigenic reactivity of IL4.4 (RsL.11 proliferation, irradiated splenic APC) (orders of magnitude) was more than 5; the inhibition of the response to GPMBP (RsL.11 proliferation, irradiated splenic APC) was 100 fold.

B1: IL2.7 (rat IL2/EK/GP73-87/6his fusion protein) (protein)
chain: APTSSPAKETQQHLEQLLLDLQVLLRGIDNYKNLKLPMMLTFKFYLPKQATELKHLQCLENELGALQRVLDLTQSKSFHLEDAGNFISNIRVTVVKLKGSENKFECQFDDEPATVVEFLRRWIAICQSIISTMTQGDDDDKGPQKSQRSQDENPVVHHHHHHH
For the molecule B1, in assay [2], the antigenic potency against GPMBP added with saturating IL-2 as a separate molecule turned out to be 100 fold; the inhibition by soluble IL-2 of the RsL.11 proliferative response to IL2.7 (irradiated splenic APC) was 10 fold; the potency against GPMBP in T cell-mediated cytotoxic assay (R1-trans T-APC, irradiated RsL.11), IL-2 added 24 hours after initiation of culture stood at 1000 times; the potency against GPMBP in T cell-mediated cytotoxic assay (R1-trans T-APC, irradiated RsL.11), IL-2 added at the initiation of culture was 32 fold.

B2: IL2Ekdel (rat IL2/GP73-87/6his fusion protein) (protein)
chain: APTSSPAKETQQHLEQLLLDLQVLLRGIDNYKNLKLPMMLTFKFYLPKQATELKHLQCLENELGALQRVLDLTQSKSFHLEDAGNFISNIRVTVVKLKGSENKFECQFDDEPATVVEFLRRWIAICQSIISTMTQPQKSQRSQDENPVVHHHHHHH
In assay [2], B2 gave a lowest concentration fully active in MHCII-dependent T cell-mediated killing assay of 100 fM and a potency against GPMBP or DHFR-NAg in MHCII-dependent T cell-mediated killing assay (R1-trans T-APC) (orders of magnitude) of more than 5.

B3: IL4Ekdel (rat IL4/GP73-87/6his fusion protein) (protein)
chain: CNDSPLREIINTLNQVTEKGTPCTEMFVPDVLTATRNTTENELICRASRVLRKFYFPRDVPPCLKNKSGVLGELRKLCRGVSGLNSLRSCTVNESTLTTLKDFLESLKSILRGKYLQSCTSMSPQKSQRSQDENPVVHHHHHHH
In assay [3], B3 yielded an antigenic potency against GPMBP (RsL.11 proliferation, irradiated splenic APC) of more than 1000 times and a potency against GPMBP in MHCII-dependent T cell-mediated killing assay (R1-trans T-APC) of 1000 times.

B4: IL4.4 (rat IL4/EK/GP73-87/6his fusion protein) (protein)
chain: CNDSPLREIINTLNQVTEKGTPCTEMFVPDVLTATRNTTENELICRASRVLRKFYFPRDVPPCLKNKSGVLGELRKLCRGVSGLNSLRSCTVNESTLTTLKDFLESLKSILRGKYLQSCTSMSGDDDDKGPQKSQRSQDENPVVHHHHHHH
In assay [3], B4 displayed an antigenic potency against GPMBP added with saturating IL-4 as a separate molecule of 100 fold; an antigenic potency against GPMBP, by antigen concentrations eliciting a half maximal response (RsL.11 proliferation, irradiated splenic APC) of more than 100 fold; an inhibition by soluble IL-4 of the RsL.11 proliferative response to IL4.4 (irradiated splenic APC) of 10 fold.
